Key:
[1] = target: Fc-tagged SARS-CoV-2 spike receptor-binding domain (RBD) (SARS-CoV-2) (UniProt P0DTC2); test: BLI; Fc-tagged RBD (20 ug/ml) loaded on anti-hIgG Fc Capture (AHC) biosensors, Fab in solution; room temperature; 1x PBS pH 7.4, 0.01% BSA, 0.002% Tween 20; 1:1 binding model
[2] = target: Fc-tagged SARS-CoV-2 receptor-binding domain (RBD), wild type (SARS-CoV-2) (UniProt P0DTC2); test: BLI; Fc-tagged RBD (20 ug/ml) loaded on anti-hIgG Fc Capture (AHC) biosensors, Fab in solution at four to five concentrations; Octet Red96e, room temperature, 1x kinetics buffer (1x PBS pH 7.4, 0.01% w/v BSA, 0.002% v/v Tween 20); 1:1 binding model
[3] = target: Fc-tagged SARS-CoV-2 RBD (SARS-CoV-2) (UniProt P0DTC2); test: BLI; Octet Red96e, room temperature; Fc-tagged RBD (20 μg/ml) loaded on anti-hIgG Fc Capture (AHC) biosensors, Fab in solution; 1× kinetics buffer (1× PBS pH 7.4, 0.01% BSA, 0.002% Tween 20); 60 s association, 60 s dissociation; 1:1 binding model

Substance	Kd [1] [nM]	Kd [3] [nM]	other results
CC12.3 Fab, F58 (wild type)	14	–	–
CC12.3 Fab, wild type	–	–	Kd [2]: 14 nM
COV107-23 paired with the light chain of COVD21-C8 (Fab)	–	> 1000	–
COV107-23 Fab, Y58 variant (heavy chain F58Y)	362	–	–
COVD21-C8 heavy chain paired with the light chain of COV107-23 (Fab)	–	> 1000	–
